Source: the supplement of paper PMC10567573

B1: FCHSD1 (parent)
chain: LEAAEVILEHAHRGEQTTSQVSWE

Variants of: B1
Assay: protein stability index of a GFP-peptide fusion (GPS, HEK-293T) (PSI 1-6); higher = more stable
Details: c terminus: a fixed tail appended
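Further: lentivirally expressed fusions sorted by FACS into six bins by GFP to DsRed ratio, PSI derived from sequencing read proportions per bin multiplied by bin number.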

Protein stability index of substitutions, site by site:
E5: D 4.31 | F 2.29 | H 3.6 | I 2.18 | K 3.48 | L 1.11 | M 2.4 | N 3.63 | Q 4.2 | R 4.22 | S 4.1 | T 4.38 | V 2.83 | W 1.53 | Y 2.01
V6: A 4.9 | D 5.52 | E 5.31 | F 3.56 | G 5.35 | H 4.7 | I 4.03 | K 4.16 | L 3.95 | M 3.85 | N 5.66 | P 5.66 | Q 5.27 | R 4.48 | S 4.24 | Y 4.17
I7: A 4.71 | C 4.28 | D 5.62 | E 4.64 | F 4.27 | G 5.1 | H 5.15 | L 4.99 | M 4.84 | N 5.08 | P 4.89 | Q 4.55 | R 5.16 | S 4.92 | V 4.75 | W 4.24 | Y 4.7
L8: A 4.96 | C 4.93 | D 5.35 | E 5.09 | F 4 | G 5.23 | H 4.74 | I 4.46 | K 4.98 | M 4.46 | P 5.65 | Q 5.5 | R 4.92 | S 5.37 | T 5.09 | V 4.83 | W 4.31 | Y 4.42
E9: C 3.04 | D 4.33 | F 2.54 | G 3.87 | H 4.18 | I 1.86 | K 4.19 | L 2.52 | M 2.66 | N 3.8 | Q 3.45 | R 3.39 | S 4.4 | T 3.62 | V 2.5 | W 2.05 | Y 2.33
H10: C 3.63 | E 5.19 | F 3.05 | G 3.87 | I 2.88 | K 4.48 | L 4.34 | M 3.15 | N 3.78 | P 4.41 | Q 4.88 | S 4.41 | T 4.65 | V 3.92 | Y 3.15
A11: C 4.14 | D 4.97 | E 4.69 | F 3.27 | G 4.14 | H 4.05 | I 3.33 | L 4.77 | M 4.46 | N 4.18 | P 5.38 | Q 4.11 | R 4.71 | S 4.12 | T 3.04 | V 4.54 | W 3.23 | Y 3.47
H12: A 4.23 | D 4.04 | E 4.92 | F 2.87 | I 4.25 | K 4.07 | M 3.79 | N 4.55 | P 4.43 | S 4.77 | T 4.11 | Y 4.09
R13: A 4.58 | C 3.5 | D 4.67 | G 5.25 | H 4.6 | I 4.11 | K 4.1 | L 4.13 | M 4.27 | N 4.63 | P 4.9 | Q 4.41 | S 4.24 | T 4.58 | V 4.93 | W 3.27 | Y 3.44
G14: A 4.55 | C 4.2 | D 4.68 | E 4.53 | F 2.88 | H 4.28 | I 3.85 | L 3.76 | M 3.45 | N 4.53 | P 4.29 | Q 4.63 | R 4.19 | S 4.46 | T 4.21 | V 3.47 | Y 3.64
E15: A 3.79 | D 4.22 | F 2.31 | H 3.87 | I 3.31 | K 3.46 | L 2.81 | N 4.7 | Q 3.5 | R 3.87 | V 2.6 | W 2.2
Q16: A 4.41 | C 2.73 | D 4.9 | E 4.88 | F 3.53 | G 4.42 | H 4.05 | I 3.98 | K 4.24 | L 2.92 | M 3.57 | N 3.97 | P 4.05 | R 4.14 | S 4.4 | T 4.33 | V 4.13 | Y 3.69
T17: A 4.2 | C 4.51 | E 5.06 | G 4.84 | H 3.99 | L 2.78 | M 3.85 | N 4.39 | P 4.14 | Q 4.51 | S 4.77 | V 4.37 | W 3.54 | Y 3.32
T18: A 3.72 | C 4.45 | D 4.74 | E 4.2 | F 2.98 | G 4.38 | H 4.09 | I 3.65 | K 4.54 | L 4.11 | M 3.59 | N 3.69 | P 4.33 | Q 3.21 | R 3.93 | S 4.41 | V 3.88 | W 2.7 | Y 3.21
S19: A 2.6 | C 3.3 | D 5.11 | E 4.75 | F 2.97 | H 4.14 | I 3.02 | K 4.45 | L 2.8 | M 3 | N 4.7 | P 4.7 | Q 4.89 | R 4.42 | T 4.21 | V 2.37 | Y 2.64
Q20: A 3.72 | C 3.95 | D 5.02 | F 3.76 | H 4.2 | I 4.42 | K 5.02 | L 4.17 | M 4.34 | N 4.86 | P 4.38 | R 4.45 | S 4.51 | T 3.86 | V 4.02 | Y 4.26
V21: A 5.21 | C 4.62 | E 5.07 | F 3.3 | G 4.94 | I 3.5 | K 4.68 | L 4.58 | M 4.32 | N 4.92 | P 5.55 | Q 4.44 | R 4.18 | S 5.51 | T 4.64 | Y 3.9
S22: A 4.57 | C 3.85 | D 4.77 | E 4.68 | F 3.71 | G 4.89 | I 4.41 | K 4.93 | L 3.79 | M 4.54 | N 4.47 | P 5.17 | Q 4.98 | R 3.74 | T 3.8 | V 5.24 | Y 4.63
W23: A 5.32 | C 3.4 | D 5.55 | E 5.79 | F 4.64 | H 5.61 | I 4.2 | K 4.41 | L 5.12 | M 4.23 | N 3.89 | P 5.29 | Q 5.54 | R 4.58 | S 5.24 | T 4.9 | Y 4.71
E24: A 3.2 | C 3.88 | F 2.65 | G 2.57 | H 4 | I 2.01 | K 4.64 | L 2.95 | M 2.72 | N 3.92 | P 4.3 | Q 3.95 | R 3.47 | S 4.46 | V 3.07 | W 2.66 | Y 3.99
